The series deals with the molecule itself. Nature of the series: co-sedimentation; polymerization (sedimentation) assay: 12 μM SaFtsZ, 2 mM GTP, 50 mM MES pH 6.5, 5 mM Mg(CH3COO)2, 100 mM CH3CO2K, 10 min at 30 °C, ultracentrifuged at 350,000 x g for 10 min at 25 °C, pellet and supernatant on SDS-PAGE; with or without 50 μM C109.

B1: wild-type FtsZ of S. aureus (natural protein, Staphylococcus aureus ATCC 25923, UniProt P0A031 1-390, looked up)
chain: MLEFEQGFNHLATLKVIGVGGGGNNAVNRMIDHGMNNVEFIAINTDGQALNLSKAESKIQIGEKLTRGLGAGANPEIGKKAAEESREQIEDAIQGADMVFVTSGMGGGTGTGAAPVVAKIAKEMGALTVGVVTRPFSFEGRKRQTQAAAGVEAMKAAVDTLIVIPNDRLLDIVDKSTPMMEAFKEADNVLRQGVQGISDLIAVSGEVNLDFADVKTIMSNQGSALMGIGVSSGENRAVEAAKKAISSPLLETSIVGAQGVLMNITGGESLSLFEAQEAADIVQDAADEDVNMIFGTVINPELQDEIVVTVIATGFDDKPTSHGRKSGSTGFGTSVNTSSNATSKDESFTSNSSNAQATDSVSERTHTTKEDDIPSFIRNREERRSRRTRR
notes: FtsZ, cell division protein, Staphylococcus aureus ATCC 25923; full-length ftsZ gene (1173 bp) amplified from genomic DNA; Cloned into pETSUMO by In-Fusion; also called SaFtsZ; full-length S. aureus FtsZ; source: E. coli BL21(DE3), purified (HisTrap HP nickel column, SUMO protease, Superdex-75 SEC)
On to B1, for which the binding result is listed as “binds”.

The record behind these values is PMC8308607, “Antistaphylococcal Activity of the FtsZ Inhibitor C109” (Pathogens, 2021).
